The values below come from patent publication US20090099029A1, “Methods and substrates for conducting assays” (Invitrogen Corporation, priority 2005, published 2009).

The chains are these.
B1: PDGFRA (protein)
chain: KQKPRYEIRWRVIESISPDGHEYIYVDPMQLPYDSRWEFPRDGLVLGRVLGSGAFGKVVEGTAYGLSRSQPVMKVAVKMLKPTARSSEKQALMSELKIMTHLGPHLNIVNLLGACTKSGPIYIITEYCFYGDLVNYLHKNRDSFLSHHPEKPKKELDIFGLNPADESTRSYVILSFENNGDYMDMKQADTTQYVPMLERKEVSKYSDIQRSLYDRPASYKKKSMLDSEVKNLLSDDNSEGLTLLDLLSFTYQVARGMEFLASKNCVHRDLAARNVLLAQGKIVKICDFGLARDIMHDSNYVSKGSTFLPVKWMAPESIFDNLYTTLSDVWSYGILLWEIFSLGGTPYPGMMVDSTFYNKIKSGYRMAKPDHATSEVYEIMVKCWNSEPEKRPSFYHLSEIVENLLPGQYKKSYEKIHLDFLKSDHPAVARMRVDSDNAYIGVTYKNEEDKLKDWEGGLDEQRLSADSGYIIPLPDIDPVPEEEDLGKRNRHSSQTSEESAIETGSSSSTFIKREDETIEDIDMMDDIGIDSSDLVEDSFL
modifications: left off: a dimerising Fc or GST
B2: PDGFRA, T674I (protein)
chain: B1 chain with T125I
modifications: left off: a dimerising Fc or GST
B3: IGF1R (protein)
chain: RKRNNSRLGNGVLYASVNPEYFSAADVYVPDEWEVAREKITMSRELGQGSFGMVYEGVAKGVVKDEPETRVAIKTVNEAASMRERIEFLNEASVMKEFNCHHVVRLLGVVSQGQPTLVIMELMTRGDLKSYLRSLRPEMENNPVLAPPSLSKMIQMAGEIADGMAYLNANKFVHRDLAARNCMVAEDFTVKIGDFGMTRDIYETDYYRKGGKGLLPVRWMSPESLKDGVFTTYSDVWSFGVVLWEIATLAEQPYQGLSNEQVLRFVMEGGLLDKPDNCPDMLFELMRMCWQYNPKMRPSFLEIISSIKEEMEPGFREVSFYYSEENKLPEPEELDLEPENMESVPLDPSASSSSLPLPDRHSGHKAENGPGPGVLVLRASFDERQPYAHMNGGRKNERALPLPQSSTC
modifications: left off: small tags and cut ends
B4: FGFR4 (protein)
chain: RGQALHGRHPRPPATVQKLSRFPLARQFSLESGSSGKSSSSLVRGVRLSSSGPALLAGLVSLDLPLDPLWEFPRDRLVLGKPLGEGCFGQVVRAEAFGMDPARPDQASTVAVKMLKDNASDKDLADLVSEMEVMKLIGRHKNIINLLGVCTQEGPLYVIVECAAKGNLREFLRARRPPGPDLSPDGPRSSEGPLSFPVLVSCAYQVARGMQYLESRKCIHRDLAARNVLVTEDNVMKIADFGLARGVHHIDYYKKTSNGRLPVKWMAPEALFDRVYTHQSDVWSFGILLWEIFTLGGSPYPGIPVEELFSLLREGHRMDRPPHCPPELYGLMRECWHAAPSQRPTFKQLVEALDKVLLAVSEEYLDLRLTFGPYSPSGGDASSTCSSSDSVFSHDPLPLGSSSFPFGSGVQT
modifications: left off: small tags and cut ends
B5: MUSK (protein)
chain: CCRRRKQWKNKKRESAAVTLTTLPSELLLDRLHPNPMYQRMPLLLNPKLLSLEYPRNNIEYVRDIGEGAFGRVFQARAPGLLPYEPFTMVAVKMLKEEASADMQADFQREAALMAEFDNPNIVKLLGVCAVGKPMCLLFEYMAYGDLNEFLRSMSPHTVCSLSHSDLSMRAQVSSPGPPPLSCAEQLCIARQVAAGMAYLSERKFVHRDLATRNCLVGENMVVKIADFGLSRNIYSADYYKANENDAIPIRWMPPESIFYNRYTTESDVWAYGVVLWEIFSYGLQPYYGMAHEEVIYYVRDGNILSCPENCPVELYNLMRLCWSKLPADRPSFTSIHRILERMCERAEGTVSV
modifications: left off: a dimerising Fc or GST
B6: INSRR (protein)
chain: YGKKRNRTLYASVNPEYFSASDMYVPDEWEVPREQISIIRELGQGSFGMVYEGLARGLEAGEESTPVALKTVNELASPRECIEFLKEASVMKAFKCHHVVRLLGVVSQGQPTLVIMELMTRGDLKSHLRSLRPEAENNPGLPQPALGEMIQMAGEIADGMAYLAANKFVHRDLAARNCMVSQDFTVKIGDFGMTRDVYETDYYRKGGKGLLPVRWMAPESLKDGIFTTHSDVWSFGVVLWEIVTLAEQPYQGLSNEQVLKFVMDGGVLEELEGCPLQLQELMSRCWQPNPRLRPSFTHILDSIQEELRPSFRLLSFYYSPECRGARGSLPTTDAEPDSSPTPRDCSPQNGGPGH
modifications: left off: a dimerising Fc or GST
B7: FLT3 (protein)
chain: HKYKKQFRYESQLQMVQVTGSSDNEYFYVDFREYEYDLKWEFPRENLEFGKVLGSGAFGKVMNATAYGISKTGVSIQVAVKMLKEKADSSEREALMSELKMMTQLGSHENIVNLLGACTLSGPIYLIFEYCCYGDLLNYLRSKREKFHRTWTEIFKEHNFSFYPTFQSHPNSSMPGSREVQIHPDSDQISGLHGNSFHSEDEIEYENQKRLEEEEDLNVLTFEDLLCFAYQVAKGMEFLEFKSCVHRDLAARNVLVTHGKVVKICDFGLARDIMSDSNYVVRGNARLPVKWMAPESLFEGIYTIKSDVWSYGILLWEIFSLGVNPYPGIPVDANFYKLIQNGFKMDQPFYATEEIYIIMQSCWAFDSRKRPSFPNLTSFLGCQLADAEEAMYQNVDGRVSECPHTYQNRRPFSREMDLGLLSPQAQVEDS
modifications: left off: small tags and cut ends
B8: PDGFRB (protein)
chain: MLWQKKPRYEIRWKVIESVSSDGHEYIYVDPMQLPYDSTWELPRDQLVLGRTLGSGAFGQVVEATAHGLSHSQATMKVAVKMLKSTARSSEKQALMSELKIMSHLGPHLNVVNLLGACTKGGPIYIITEYCRYGDLVDYLHRNKHTFLQHHSDKRRPPSAELYSNALPVGLPLPSHVSLTGESDGGYMDMSKDESVDYVPMLDMKGDVKYADIESSNYMAPYDNYVPSAPERTCRATLINESPVLSYMDLVGFSYQVANGMEFLASKNCVHRDLAARNVLICEGKLVKICDFGLARDIMRDSNYISKGSTFLPLKWMAPESIFNSLYTTLSDVWSFGILLWEIFTLGGTPYPELPMNEQFYNAIKRGYRMAQPAHASDEIYEIMQKCWEEKFEIRPPFSQLVLLLERLLGEGYKKKYQQVDEEFLRSDHPAILRSQARLPGFHGLRSPLDTSSVLYTAVQPNEGDNDYIIPLPDPKPEVADEGPLEGSPSLASSTLNEVNTSSTISCDSPLEPQDEPEPEPQLELQVEPEPELEQLPDSGCPAPRAEAEDSFL
modifications: left off: small tags and cut ends
B9: MET (protein)
chain: KKRKQIKDLGSELVRYDARVHTPHLDRLVSARSVSPTTEMVSNESVDYRATFPEDQFPNSSQNGSCRQVQYPLTDMSPILTSGDSDISSPLLQNTVHIDLSALNPELVQAVQHVVIGPSSLIVHFNEVIGRGHFGCVYHGTLLDNDGKKIHCAVKSLNRITDIGEVSQFLTEGIIMKDFSHPNVLSLLGICLRSEGSPLVVLPYMKHGDLRNFIRNETHNPTVKDLIGFGLQVAKGMKYLASKKFVHRDLAARNCMLDEKFTVKVADFGLARDMYDKEYYSVHNKTGAKLPVKWMALESLQTQKFTTKSDVWSFGVLLWELMTRGAPPYPDVNTFDITVYLLQGRRLLQPEYCPDPLYEVMLKCWHPKAEMRPSFSELVSRISAIFSTFIGEHYVHVNATYVNVKCVAPYPSLLSSEDNADDEVDTRPASFWETS
modifications: left off: small tags and cut ends
B10: FLT1(VEGFR1) (protein)
chain: RKMKRSSSEIKTDYLSIIMDPDEVPLDEQCERLPYDASKWEFARERLKLGKSLGRGAFGKVVQASAFGIKKSPTCRTVAVKMLKEGATASEYKALMTELKILTHIGHHLNVVNLLGACTKQGGPLMVIVEYCKYGNLSNYLKSKRDLFFLNKDAALHMEPKKEKMEPGLEQGKKPRLDSVTSSESFASSGFQEDKSLSDVEEEEDSDGFYKEPITMEDLISYSFQVARGMEFLSSRKCIHRDLAARNILLSENNVVKICDFGLARDIYKNPDYVRKGDTRLPLKWMAPESIFDKIYSTKSDVWSYGVLLWEIFSLGGSPYPGVQMDEDFCSRLREGMRMRAPEYSTPEIYQIMLDCWHRDPKERPRFAELVEKLGDLLQANVQQDGKDYIPINAILTGNSGFTYSTPAFSEDFFKESISAPKFNSGSSDDVRYVNAFKFMSLERIKTFEELLPNATSMFDDYQGDSSTLLASPMLKRFTWTDSKPKASLKIDLRVTSKSKESGLSDVSRPSFCHSSCGHVSEGKRRFTYDHAELERKIACCSPPPDYNSVVLYSTPPI
modifications: left off: a dimerising Fc or GST
B11: KIT (protein)
chain: TYKYLQKPMYEVQWKVVEEINGNNYVYIDPTQLPYDHKWEFPRNRLSFGKTLGAGAFGKVVEATAYGLIKSDAAMTVAVKMLKPSAHLTEREALMSELKVLSYLGNHMNIVNLLGACTIGGPTLVITEYCCYGDLLNFLRRKRDSFICSKQEDHAEAALYKNLLHSKESSCSDSTNEYMDMKPGVSYVVPTKADKRRSVRIGSYIERDVTPAIMEDDELALDLEDLLSFSYQVAKGMAFLASKNCIHRDLAARNILLTHGRITKICDFGLARDIKNDSNYVVKGNARLPVKWMAPESIFNCVYTFESDVWSYGIFLWELFSLGSSPYPGMPVDSKFYKMIKEGFRMLSPEHAPAEMYDIMKTCWDADPLKRPTFKQIVQLIEKQISESTNHIYSNLANCSPNRQKPVVDHSVRINSVGSTASSSQPLLVHDDV
modifications: left off: small tags and cut ends
B12: MERTK (protein)
chain: KRVQETKFGNAFTEEDSELVVNYIAKKSFCRRAIELTLHSLGVSEELQNKLEDVVIDRNLLILGKILGEGEFGSVMEGNLKQEDGTSLKVAVKTMKLDNSSQREIEEFLSEAACMKDFSHPNVIRLLGVCIEMSSQGIPKPMVILPFMKYGDLHTYLLYSRLETGPKHIPLQTLLKFMVDIALGMEYLSNRNFLHRDLAARNCMLRDDMTVCVADFGLSKKIYSGDYYRQGRIAKMPVKWIAIESLADRVYTSKSDVWAFGVTMWEIATRGMTPYPGVQNHEMYDYLLHGHRLKQPEDCLDELYEIMYSCWRTDPLDRPTFSVLRLQLEKLLESLPDVRNQADVIYVNTQLLESSEGLAQGSTLAPLDLNIDPDSIIASCTPRAAISVVTAEVHDSKPHEGRYILNGGSEEWEDLTSAPSAAVTAEKNSVLPGERLVRNGVSWSHSSMLPLGSSLPDELLFADDSSEGSEVLM
modifications: left off: a dimerising Fc or GST

Changes are numbered by the printed parent chain.

The test system of the series is kinases of Table 6 on Myelin Basic Protein (MBP). As to the kind of experiment: Kinase assay using MBP substrate, ProQ Diamond stain (Table 6). It is filed as biochemical. As to conditions: kinase printed on MBP-coated slide; 20 uM ATP, 30° C.; ProQ Diamond Microarray Stain; graded Strong/Weak/Negative. Summed up: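 Bovine dephosphorylated MBP coated on aldehyde- or epoxy-glass slides, kinases printed on top; reaction buffer pH 7.5 with 4 mM MgCl2, 20 uM ATP, 5% DMSO, ± inhibitor, at 30° C. Phosphorylation detected by ProQ Diamond stain, 30 min in dark.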
As for B1, the “MBP Kinase Activity” value is listed as “Strong”.

For the molecule B2, the “MBP Kinase Activity” value is reported as “Negative”.

Turning to B3, the “MBP Kinase Activity” value is on record as “Strong”.

With B4, the “MBP Kinase Activity” value is given as “Strong”.

Turning to B5, the “MBP Kinase Activity” value is “Negative”.

For the molecule B6, the “MBP Kinase Activity” value is given as “Negative”.

Consider B7, for which the “MBP Kinase Activity” value was “Strong”.

For B8, the “MBP Kinase Activity” value is “Strong”.

On to B9, for which the “MBP Kinase Activity” value is “Strong”.

B10: the “MBP Kinase Activity” value is on record as “Strong”.

As to B11, the “MBP Kinase Activity” value was “Negative”.

Regarding B12, the “MBP Kinase Activity” value is “Strong”.
